From PMC11353242 come the findings set out here.

Holding throughout (test): pull-down; GFP-CEP55 proteins (355 nM) bound to GFP-Trap Magnetic Agarose beads; taxol-polymerised MTs (545 nM tubulin), pH adapted to 7.5, incubated 1 h at 4 °C; 6 washes; bound MTs detected by Western blot against β tubulin; MTs bound to CEP55^FL set as 100%
The target in test [1] is His-GFP-CEP55^1–428 (C-terminus, aa 429–464, deleted) (UniProt Q53EZ4).
Test [2] has as its target His-GFP-CEP55^59–428 (N- and C-termini deleted) (UniProt Q53EZ4).
For test [3], the target named is His-GFP-CEP55^59–464 (N-terminus, aa 1–58, deleted) (UniProt Q53EZ4).

Take “Microtubules polymerised with taxol from tubulin prepared from porcine brain (from UniProt P02550 1-451; Q767L7 1-444) (complex)”: the values for the percent reduction of MT binding against CEP55^FL in test [1], in test [2] and in test [3] were 20%, 60% and 20%, respectively.
